Experimental data published in US20050069569A1.
Read-outs that look alike come from different tables or passages of the source. One block for each molecule: values may come before it.

How the values were obtained:
PTHrP107-139 (human) [1] = tested on: T1, PTHrP107-139 (human)
T1 sequence: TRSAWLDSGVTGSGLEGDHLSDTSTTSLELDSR

[2] = target: secPHEX (soluble, secreted form of recombinant human PHEX) (human) (UniProt P78562); experiment: cell-based or functional assay
PTHrP107-139 (human) [3] = target: T2, PTHrP107-139 (human)
T2 chain: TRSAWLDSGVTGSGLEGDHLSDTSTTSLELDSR

Molecule: secPHEX (soluble, secreted form of recombinant human PHEX)
degradation of PTHrP107-139 (HPLC) (PTHrP107-139 (human) [1]): approximately 75 to 80% degradation of the peptide was observed

50% inhibition of secPHEX-mediated PTHrP107-139 hydrolysis (HPLC) [2]: 3.6 µM
inhibition of secPHEX activity at 5×10^-6 M osteocalcin [2]: 75%
Molecule: osteocalcin (human, extracted from bones, with Gla residues) (from UniProt P02818 52-100)

B1: secPHEXE581V (inactive soluble human PHEX with Glu 581 replaced by Val) (protein)
chain: QGLLSLQAKQEYCLKPECIEAAAAILSKVNLSVDPCDNFFRFACDGWISNNPIPEDMPSYGVYPWLRHNVDLKLKELLEKSISRRRDTEAIQKAKILYSSCMNEKAIEKADAKPLLHILRHSPFRWPVLESNIGPEGVWSERKFSLLQTLATFRGQYSNSVFIRLYVSPDDKASNEHILKLDQATLSLAVREDYLDNSTEAKSYRDALYKFMVDTAVLLGANSSRAEHDMKSVLRLEIKIAEIMIPHENRTSEAMYNKMNISELSAMIPQFDWLGYIKKVIDTRLYPHLKDISPSENVVVRVPQYFKDLFRILGSERKKTIANYLVWRMVYSRIPNLSRRFQYRWLEFSRVIQGTTTLLPQWDKCVNFIESALPYVVGKMFVDVYFQEDKKEMMEELVEGVRWAFIDMLEKENEWMDAGTKRKAKEKARAVLAKVGYPEFIMNDTHVNEDLKAIKFSEADYFGNVLQTRKYLAQSDFFWLRKAVPKTEWFTNPTTVNAFYSASTNQIRFPAGELQKPFFWGTEYPRSLSYGAIGVIVGHVFTHGFDNNGRKYDKNGNLDPWWSTESEEKFKEKTKCMINQYSNYYWKKAGLNVKGKRTLG
degradation of PTHrP107-139 (HPLC) (PTHrP107-139 (human) [3]): purified secPHEXE581V failed to degrade PTHrP107-139 under similar conditions
